B1: WW domain-containing oxidoreductase (Homo sapiens), Q9NZC7 (parent)
chain: MAALRYAGLDDTDSEDELPPGWEERTTKDGWVYYANHTEEKTQWEHPKTGKRKRVAGDLPYGWEQETDENGQVFFVDHINKRTTYLDPRLAFTVDDNPTKPTTRQRYDGSTTAMEILQGRDFTGKVVVVTGANSGIGFETAKSFALHGAHVILACRNMARASEAVSRILEEWHKAKVEAMTLDLALLRSVQHFAEAFKAKNVPLHVLVCNAATFALPWSLTKDGLETTFQVNHLGHFYLVQLLQDVLCRSAPARVIVVSSESHRFTDINDSLGKLDFSRLSPTKNDYWAMLAYNRSKLCNILFSNELHRRLSPRGVTSNAVHPGNMMYSNIHRSWWVYTLLFTLARPFTKSMQQGAATTVYCAAVPELEGLGGMYFNNCCRCMPSPEAQSEETARTLWALSERLIQERLGSQSG
partner: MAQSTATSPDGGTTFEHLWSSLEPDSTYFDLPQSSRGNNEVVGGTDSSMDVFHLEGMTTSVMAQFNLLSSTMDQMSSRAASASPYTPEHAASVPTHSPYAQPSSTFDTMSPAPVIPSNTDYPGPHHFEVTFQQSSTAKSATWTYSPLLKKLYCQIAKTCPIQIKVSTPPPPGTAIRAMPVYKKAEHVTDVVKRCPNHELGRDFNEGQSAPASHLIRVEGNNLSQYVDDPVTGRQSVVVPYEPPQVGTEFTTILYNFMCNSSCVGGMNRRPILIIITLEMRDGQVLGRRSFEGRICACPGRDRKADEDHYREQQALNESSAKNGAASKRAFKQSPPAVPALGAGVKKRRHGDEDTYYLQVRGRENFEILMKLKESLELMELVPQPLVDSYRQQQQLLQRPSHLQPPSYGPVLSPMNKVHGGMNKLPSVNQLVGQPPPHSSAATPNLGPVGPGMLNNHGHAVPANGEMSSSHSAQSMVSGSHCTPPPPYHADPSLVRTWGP
B2: Tumor protein p73 (Homo sapiens), O15350-2 (parent)
chain: B1 partner
partner: B1 chain

Variants of: B1
Conditions: with TP73, O15350-2

| effect of a mutation on the interaction | Variant |
| --- | --- |
| with no effect | Y33F |
| decreasing interaction strength | Y33R |

Variants of: B1
Conditions: with TP73, O15350-2
Remark: another data set of the same source

| effect of a mutation on the interaction | Variant |
| --- | --- |
| disrupting interaction strength | Y33R |
| with no effect | Y61R |

Variants of: B2
Conditions: with wwox_human WWOX, Q9NZC7

| effect of a mutation on the interaction | Variant |
| --- | --- |
| disrupting interaction strength | Y487A |

Reference: IntAct's records for PubMed 15070730
